Where “and” joins values, the source holds several entries; their conditions need not be identical. Equal entries are not always repeated. Entries after “also recorded” stand apart in the source; their conditions may differ.
How the values were obtained:
[1] = test system: IgE of sera from ragweed pollen allergic patients; test: SDS-PAGE IgE immunoblot with patients' sera; format: binding, human
Method: Membrane strips were incubated with sera from ragweed pollen allergic patients (lanes 1-29) or with serum from a non-allergic donor (lane C). Bound IgE was detected with ^125I-labeled goat anti-human IgE. Ragweed pollen-sensitized patients were recruited in Austria (lanes 1-13) or in Italy (lanes 14-29).
The proteins were analyzed via SDS-PAGE using 15% acrylamide gels and 0.1% Coomassie staining with a molecular weight standard RPN 756 (GE Healthcare Life Sciences). Sera from allergic patients were tested for positive IgE-reactivity. rAmb a 1 and rArt v 6 were separated on 15% (w/w) polyacrylamide gels and electroblotted onto a PVDF membrane. After blocking the non-specific protein binding sites with Blocking buffer (per L: 7.5 g Na2HPO4, 1 g NaH2PO4, 5 g BSA and 5 mL Tween 20), the membrane was incubated with patients' sera (diluted 1:10 in Blocking buffer) for more than 6 hours at room temperature. The membrane was washed for at least 30 minutes with Blocking buffer before it was incubated with radiolabeled [^125 I]-anti human IgE (RAST, 5 µCi, MedPro) diluted in Blocking buffer (1:40) overnight at room temperature. After a second 30-minute wash, the membrane was placed onto an imaging plate. The screen was exposed for at least 24 hours and developed using a PhosphoImager Bas-1800 II scanner for detection and the instrument's supporting software (Fujifilm).
nAmb a 1 undergoes spontaneously proteolysis during purification and it is cleaved into two chains, alpha and beta chain, respectively.

[2] = test system: IgE of sera from ragweed pollen allergic patients; test: IgE dot-blot / non-denaturing IgE binding of recombinant Amb a 1.3; parameters: species or system human; conditions: sera from 17 ragweed pollen allergic patients
Excerpt: E. coli-produced rAmb a 1.3 was purified as described above and dotted on nitrocellulose membranes.
Thus, another approach for producing recombinant reagents with full IgE-binding activity was pursued, as described in section 4. Despite its low IgE-binding activity, rAmb a 1.3 was successfully used in vitro for T cell epitope mapping and proliferation assays, as correct folding is not essential for T cell recognition (see example 2).

[3] = test system: Amb a 1-specific TCL and TCC; test: Cytokine production in TCL and TCC (ELISA of supernatants); format: cell-based, human
Method: T cells were washed and incubated with irradiated autologous APC in the presence of the stimulant (5 μg/ml) for 48 hours. Cytokine levels in the resulting supernatants were measured in ELISA using matched antibody pairs (Endogen, USA) (sensitivity limits: IL-4: 9 pg/ml, IFN-γ: 9 pg/ml). Cultures containing TCC and APC alone served as negative controls. TCC with a ratio of IFN-γ/IL-4>10 were classified as Th1, 0.1-10 as Th0 and <0.1 as Th2. […] Proliferation and cytokine responses were determined.

[4] = test system: Amb a 1-specific TCL and TCC; test: Proliferation of Amb a 1-specific TCL and TCC with allergens and chains; format: cell-based, human
Method: Peripheral blood mononuclear cells (PBMC) were isolated from heparinized blood of allergic patients by Ficoll density gradient centrifugation. To generate allergen-specific T cell lines (TCL) and T cell clones (TCC), 1.5×10^6 PBMC were stimulated with optimal doses of ragweed or mugwort extract (4 μg/ml) or rAmb a 1.3 (10 μg/ml) in 24-well flat-bottomed culture plates (Costar, USA). After 5 days human rIL-2 (10 U/ml, Boehringer, Mannheim, Germany) were added and cultures were continued for additional 7 days. Then, T cell blasts were isolated by density centrifugation. The majority of T cell blasts was further expanded with IL-2 and irradiated PBMC. A small number of T cell blasts were used to establish monoclonal T cell cultures by limiting dilution: 0.3 T cells/well were seeded into 96 well round bottom plates (Nunclone) in the presence of 2×10^5 irradiated (60 Gy) PBMC, 0.25% v/v PHA (Gibco, USA) and rIL-2 (4 U/well) in the medium mentioned above. After 14-21 days, growing microcultures were expanded at weekly intervals with irradiated PBMC and rIL-2. The specificity of TCC was assessed in proliferation assays using irradiated allogeneic or HLA-matched PBMC or irradiated EBV-transformed allogeneic B-cells and 5 μg/ml Amb a 1.3. After 48 hours, cellular uptake of tritiated (^3H)-thymidine was performed to measure proliferation in counts per minute (cpm). When the stimulation index (SI; ratio between cpm obtained in cultures containing TCC plus autologous APC plus antigen, and cpm obtained in cultures containing TCC and APC alone) was >10, responses were considered as positive. Allergen-specific TCC were expanded by alternating turns of stimulation with autologous irradiated APC and allergen or with allogeneic feeder cells and rIL-2.
Proliferation and cytokine responses were determined.
When compared with the results of the T cell epitope recognition in Table 3, 45/46 patients (98%) would recognize one or more epitopes in the Amb a 1 alpha-chain. […]

[5] = test system: IgE of sera from ragweed allergic patients; test: Human IgE ELISA of purified alpha chain; format: binding; conditions: modified (version 1) alpha chain of Amb a 1.3; 12 patients (FIG. 19)
Excerpt: If a peptide of the invention is to be used as a diagnostic reagent, it is not necessary that the peptide or protein has reduced IgE binding activity compared to the native Amb a 1 allergen. IgE binding activity of peptides can be determined by, for example, an enzyme linked immunosorbent assay (ELISA) using, for example, sera obtained from an individual (i.e. an allergic individual) that has been previously exposed to the native Amb a 1. Briefly, a peptide to be tested is coated onto wells of a microtiter plate. After washing and blocking the wells, antibody solution consisting of the serum or plasma of an allergic individual who has been exposed to the peptide being tested or the protein from which it was derived is incubated in the wells. The plasma is generally depleted of IgG before incubation. However, the depletion is not necessary if highly specific anti IgE-antibodies are used. Furthermore, allergic individuals who have not undergone specific immunotherapy have in some cases almost no detectable IgG antibodies specific for the allergen in question. […] The amount of IgE binding is then quantified and compared to the amount of IgE bound by a purified native Amb a 1 protein. Alternatively, the binding activity of a peptide can be determined by Western blot analysis. […] After incubation with the labelled secondary antibody, the amount of IgE bound is then determined and quantified. […]

B1: beta chain: beta chain of naturally processed Amb a 1, N-terminal part, 138 amino acids (protein)
chain: AEGVGEILPSVNETRSLQACEAYNIIDKCWRGKADWENNRQALADCAQGFAKGTYGGKWGDVYTVTSNLDDDVANPKEGTLRFAAAQNRPLWIIFKNDMVINLNQELVVNSDKTIDGRGVKVEIINGGLTLMNVKNIIIHNINIHDVKVLPGGMIKSNDGP
modifications: Amb a 1 beta chain
notes: beta chain of naturally processed Amb a 1, N-terminal part, 138 amino acids
- IgE reactivity of the Amb a 1 chains [1]: strongly recognized; also recorded: contains most of the IgE epitopes of Amb a 1
- % of patients whose IgE recognized the chain ([1]; chains of nAmb a 1, sera from Italy, Canada and Austria (FIG. 9)): 90%

B2: rAmb a 1.3: E. coli-produced full-length recombinant Amb a 1.3 isoform (R2 clone) (protein)
chain: AEGVGEILPSVNETRSLQACEALNIIDKCWRGKADWENNRQALADCAQGFAKGTYGGKWGDVYTVTSNLDDDVANPKEGTLRFAAAQNRPLWIIFKNDMVINLNQELVVNSDKTIDGRGVKVEIINGGLTLMNVKNIIIHNINIHDVKVLPGGMIKSNDGPPILRQASDGDTINVAGSSQIWIDHCSLSKSFDGLVDVTLGSTHVTISNCKFTQQSKAILLGADDTHVQDKGMLATVAFNMFTDNVDQRMPRCRFGFFQVVNNNYDRWGTYAIGGSSAPTILCQGNRFLAPDDQIKKNVLARTGTGAAESMAWNWRSDKDLLENGAIFVTSGSDPVLTPVQSAGMIPAEPGEAAIKLTSSAGVFSCHPGAPC
modifications: left off: things letters cannot carry
- reaction with patients IgE after reduction and heat treatment ([1]; standard procedure for SDS-PAGE/immunoblotting): reacted with patients IgE
- IgE reactivity in non-denaturing assays (dot blot, ELISA) [2]: not able to bind human IgE; also recorded: very weak or no IgE reactivity
- cytokine production compared with ragweed extract (FIG. 5) or natural Amb a 1 (FIG. 6) [3]: comparable cytokine production
- T cell proliferation compared with natural Amb a 1 ([4]; PBMC, TCL and TCC, different concentrations): comparable T cell proliferations

B3: beta-chain: recombinant modified (version 1) Amb a 1.3 beta chain, aa 26-173, 148 amino acids; called beta chain in Example 4 (protein)
beta: AEGVGEILPSVNETRSLQACEAYNIIDKCWRGKADWENNRQALADCAQGFAKGTYGGKWGDVYTVTSNLDDDVANPKEGTLRFAAAQNRPLWIIFKNDMVINLNQELVVNSDKTIDGRGVKVEIINGGLTLMNVKNIIIHNINIHDVK
modifications: Amb a 1 beta chain
- proliferation, % of the response to Amb a 1 ([4]; 2 TCL with strong reactivity to Amb a 1 (FIG. 20), modified (version 1) chains of Amb a 1.3): 38% and 19%

B4: alpha chain of Amb a 1.3 (modified version 1): recombinant modified (version 1) Amb a 1.3 alpha chain, aa 174-397, 224 amino acids; called alpha chain in Example 4 (protein)
alpha: VLPGGMIKSNDGPPILRQASDGDTINVAGSSQIWIDHCSLSKSFDGLVDVTLGSTHVTISNCKFTQQSKAILLGADDTHVQDKGMLATVAFNMFTDNVDQRMPRCRFGFFQVVNNNYDRWGTYAIGGSSAPTILCQGNRFLAPDDQIKKNVLARTGTGAAESMAWNWRSDKDLLENGAIFVTSGSDPVLTPVQSAGMIPAEPGEAAIKLTSSAGVLSCRPGAPC
modifications: Amb a 1 alpha chain
- reaction of 2 TCC specific for epitopes within Amb a 1-alpha ([4]; modified (version 1) chains of Amb a 1.3): reacted
- IgE-binding activity in vitro (ELISA) [5]: low/no IgE-binding activity

Source: US9360486B2, “Allergen fragments” (Biomay AG, priority 2007, dated 2016)
